To fix the notation:
B1: YMR192W_1 (protein, UniProt Q04322 1-720, looked up)
Probable GTPase-activating …: MNSNEDIHEERIEVPRTPHQTQPEKDSDRIALRDEISVPEGDEKAYSDEKVEMATTNASSNFGSNESAKDGESIGAFSNPHEALMQSKLREESQSKTILPSDDLSQQLETEESKVEEALKRITSPPLPPRADCIEESASALKSSLPPVLAGNKNDQAPLDRPQLPPRQVVNAETLHLKAPHGNATPSKSPTSAVGNSSSSTPPTLPPRRIEDPLDLAAQKHFLASTFKRNMLFYKSEDNSIKCDLDKNILNLKEDSKKINNNEIPEEVSSFWLKVIGDYQNILINDIETLHFQLSRGIPAAYRLVVWQLVSYAKSKSFDPIYETYLTEMAPFDVQEFENQLKMMDEVPSEYVKRISNVLKAYLLFDPECEFSTDIAYIINMILDVCEEEANAFGLLVRLMKVYGLRLLFLPSASEIDILCYKFDRLVEEFYPEIHNHMVEKGVRSSMFLPGFFTTLFQKKLPTEIQPRIGDMVFLEGIDSIMRILATLLSNSRDHLLKMGFDDMLELLKSGLLDAYIKQNDGTRGDTLLSNECMDKLLQDSMMKVAITPKTMKKYSSEYEEIHRLDNEKEVQYKSITEKNLHLQKHVRKLENDYTSLNREHVTIANELVKNRLNIESVLNENNGYKLQILDLKKKLDSEKKKQVLGVYVPNDLKKDLEETMKKNTQVMDENLKLQDRISELERLIEEIKTANKNGTLFEYSNSKNNPLGAGWSGFKKVFK
B2: YLR166C_1 (protein, UniProt Q06245 1-871, looked up)
Exocyst complex component …: MNSLYELDPKWKKLLKTDNFLGGLTVNEFVQELSKDHRNDVLIDANTKNLPTNEKDQDAIREAIWKQLDPKPYIRTFESTLKELKNLNEETLNKRQYFSEQVATQEVIHSENVIKLSKDLHTTLLTFDKLDDRLTNVTQVVSPLGDKLETAIKKKQNYIQSVELIRRYNDFYSMGKSDIVEQLRLSKNWKLNLKSVKLMKNLLILSSKLETSSIPKTINTKLVIEKYSEMMENELLENFNSAYRENNFTKLNEIAIILNNFNGGVNVIQSFINQHDYFIDTKQIDLENEFENVFIKNVKFKEQLIDFENHSVIIETSMQNLINDVETVIKNESKIVKRVFEEKATHVIQLFIQRVFAQKIEPRFEVLLRNSLSISNLAYVRILHGLFTLFGKFTKSLIDYFQLLEIDDSNQILSTTLEQCFADLFSHYLYDRSKYFGIEKRSLEAILVDMTSKFTVNYDKEINKRVLLDKYKEKLSTNVDAFMHSPRGNTHSRQDSTSRSKLSQFNSFLKTHLDKDHLSLNRTNTLSDSFNNSSSSTQYDVANNSSSLVNSSFTASDIDNSPNSPANYSLNDVDSMLKCVVESTARVMELIPNKAHLYILEILKIMFLGIVDSYMEIALEVAYWKICKVDINKTAGVVNLNFLKFISMSTEILDLLSISIKSIFLPLLNNSPEIKAQIIEMTNSQIQKMEILINIILQETITVISTKFSAILCKQKKKDFVPKSQELLDQDTLPAIEIVNILNLIFEQSSKFLKGKNLQTFLTLIGEELYGLLLSHYSHFQVNSIGGVVVTKDIIGYQTAIEDWGVASLIDKFATLRELANLFTVQPELLESLTKEGHLADIGRDIIQSYISNREDFNHDNFINSVKLNFR
B3: YJL201W_1 (protein, UniProt P32525 1-599, looked up)
Protein ECM25: MIDINVNNIFFRSYSVDPNSGHAIYVFDSTYLPASDEIGDKQVYDLLINALMDRLVMKLPQAPYSLVIFSSGFSQRKISWVYGIKMFAKLPKETKFYLQKIFIVHESFFVRSVYQVISNAMNFNFLDSKDSQHDFPSLVHVLDLTSLSELIDITRLRISLNVYLYDYQIREHINVPEEYYNRLTPLAIRQYRQLVFDKIFKKLQNDALLCELIFQKPGNYKKVNIFLDIIKRNNYIDLSQWDIYSLASVWLNYFIKNKAKPLIPIELIPLPIVDDLKFTSETFRKIIKFNQYQDLFMVIIPFFNRIIAHGESTKHDSRTLSKALTPALCKEKLSMMTNDRLAIGSRYIKNLLDFFPEIAKEISSPPSSVSSSSTIPVLPKPRKSSPTRYSELGCLTLPRSRSPSPQRSVTSPTYTPVALQNTPVLKPKSSSRNVSSPSFNAKPPLPIKAVTRPQLSLTSNSNTDLALASSSTDTLSSPTKTPSADSLPLSNSSTDLTISDNIKEMVKDEPAKDKNSVETDIFVQQFESLTLVQNAKIKKFDKELQEKKKKNETTSKTADKFSQKGYSDIKASNKVSRLAALYEERLQGLQVMNEMKQRW
B4: YIL095W_1 (protein, UniProt P40494 1-810, looked up)
Actin-regulating kinase PRK1: MNTPQISLYEPGTILTVGSHHAKIIKYLTSGGFAQVYTAEISPPDPYSNANIACLKRVIVPHKQGLNTLRAEVDAMKLLRNNKHVVSYIDSHAARSVNGIAYEVFVLMEFCERGGLIDFMNTRLQNRLQESEILEIMSQTVQGITAMHALQPPLIHRDIKIENVLISHDGLYKVCDFGSVSGVIRPPRNTQEFNYVQHDILTNTTAQYRSPEMIDLYRGLPIDEKSDIWALGVFLYKICYYTTPFEKSGEAGILHARYQYPSFPQYSDRLKNLIRLMLMEAPSQRPNICQVLEEVSRLQNKPCPIRNFYLLRAMNQNANTQLAGEPSSTTYVPTQKFIPVQSLQSINQPPNMMPVTHVSTTPNLGTFPISINDNNKTEVTAHAGLQVGSHSNLTSPLMKTKSVPLSDEFASLYYKELHPFQKSQTFKSVESFQSPQRKSMPPLSLTPVNNDIFDRVSAINRPNNYVDSETQTIDNMAVPNLKLSPTITSKSLSSTKEIAAPDNINGSKIVRSLSSKLKKVITGESRGNSPIKSRQNTGDSIRSAFGKLRHGFTGNSVNNSRSASFDNNNVNGNGNNTNRRLVSSSTSSFPKFNSDTKRKEESDKNQRLEKRRSMPPSILSDFDQHERNNSRTGSRDYYRSHSPVKKTQASAKTTSKPTLIPDNGNVNINQEKKESIQRRVHNLLKSSDDPVTYKSASGYGKYTDIGTETSNRHSSVRITPITEEKFKKTLKDGVLDIKTKSNGKDKSRPPRPPPKPLHLRTEIQKIRNFSRLQSKKLPIERISSEATETIVDVNVDDLEADFRKRFPSKV
B5: YLR436C_1 (protein, UniProt Q06673 1-1274, looked up)
Protein ECM30: MGNTDSKSSSILLNHCIALVRPEDADASSPSRTSSPSPSLSVDADPLSLNLSIFKLDSGPDVEALFSDKPNVPLDTVFNDFYLDFISVDVQDFSINSSFKKILHIISSLNPPNFNNLIVFLSLYIILSANSLPASRTGLHSSRLINAIKTLSILIPIYFDRVKSSTQDHYDVFWATQHEIEGLPLQNIPLGERLLLAILKLAFQDNFTTAVTAHPSELWEIGILTNSNKYRSLLNMHHQWHLFANRLLLLRLLAALFSSDLYTSGGKQDINMFLVYWCTQMPKDKSIQFTSSLLNCTMRFILNNNKDFQSLKANFFSSDATASNWQTLYFQFVQSCLHVLNLSMSYKAQDNVITIFLTQLQREYDLKLILSSFIKIFKYPIDLAIEQESNIFNFTNNKHIDASRRRAVSTSSHDNSSSSHASLPSSSSAAYHTKPQTKPQLPEIHPLLIPMTILMTNLIDCNKCFQNYFADKFASRFIIFSIYYLKYYDYSSLSSSSSTTRSNSSTTSNGTSNDTSNERSIVELNENSVSQILLPLLNHLLLILTSKKLVLFKMLQTFNLNYYTNNLPNFYKLSNINGDINNLTFRDFTVIQLSNLILDNIKFNLQPNPIFYELIYNLLPINDEILTSSHKNDDSHDDLILLSAKKKSASPSAATSSHTSSSKLSYNAAMSLLYVLSKSSNKVYLTTYATPVFKTKDIPYMISPGFKMDLLALLLRSITIFFTLYFDDAENLLFAMVRHQSITHQINDSINSISKALDMNPNLNSHIMTLKQMGFNRKVQWKDFYQFEEITDLPQVNLYSSANQQHQNQQQGQNDNRGQNQNEDPGQENESPTPYLLFNPASLENETPGTVKHFSSTNHDKNYQVIAFIDFKSDSNLNLQHQLEYWPHRPQWPTPLTFTHKCKNPKYENFNEVWSGTVYLQILLRVIKQILSKVPEIPRIKSVQYFETLSKLSALRSDILTTIHPRLPLDVRRLTTFQPLSMHTNDKLLMWFHIATWANIFTQTSFKYEETFSHELRQFESLLDISIDECEGNTISKPTTDRLGYIRRSRGQSSVSLERTISAGSGVSTPTMALNRTKSNGSGNLMNYFFQNTAQNHFQHLRSSSSSSSITLEKTTSNSSSIRTRPNSHHVAPETNNNNSTNGNSNNSSNGGFSFFKWKWGGNNSNGGSDDTKASQRDPNVSTSIITDNLNSYMFEEEISPGVVNNIIENNIWVGTDIRLFKIANFRKESFSFLEMTSSFFKKFKFINSDNDNYNNNEFDDNTQLRYTSRGLYR

This assay concerns PPIs identified as affected by the SH3 domain deletions. The assay is described as follows: Liquid DHFR-PCA low-throughput validation of PPIs affected by SH3 deletion (Fig. S1D-E). In kind it is cell-based, Saccharomyces cerevisiae. The settings on record: bait LSB3; label = prey; liquid DHFR-PCA; prey _1 = lost, _2 = gained in screen. Put shortly:
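Growth at 30 °C was tracked by OD each 15 min over 72 h in agar-free PCA selection medium, starting at 0.1 OD. Cells were diploids selected after mating, first cultured 48 h with NAT and HPH in synthetic complete MSG medium, pH 6.0.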
Turning to B1, the “Ratio (Deletedscore / WTscore)” value stood at 0.5637.

With B2, the “Ratio (Deletedscore / WTscore)” value was 0.4618. As to B3, the “Ratio (Deletedscore / WTscore)” value was 0.8948. The result for B4 reads 0.5323; that for B5, 0.9725.

The values above are taken from paper PMC7954794, “Protein context shapes the specificity of SH3 domain-mediated interactions in vivo” (Nature Communications, 2021).
